{"source": "patent CN110028578A", "binders": {"B1": {"name": "P52E03 IgG (antibody, V domains shown)", "VH": "QVQLVQSGGGLVQPGRSLRLSCAASGFTFDDYAMHWVRQAPGKGLEWVSGISWNSGSIGYADSVKGRFTISRDNAKNSLYLQMNSLRAEDTALYYCAKGLNSSGWYVYFDYWGQGTLVTVSS", "VL": "EIVLTQSPGTLSLSPGERATLSCRASQTVARNYLAWYQQKPGQAPRLLMYDPSSRPAGIPDRFSGSGSGTDFTLTISRLEPEDSAVYFCQQYGSPPLTFGGGTKIEIKR"}}, "key": {"[1]": {"molecular_target": "A/Guangdong/17SF003/2016 H7N9 HA extracellular domain 11-505 (H3 numbering) with C-terminal T4 trime (Influenza A virus A/Guangdong/17SF003/2016 H7N9)", "experiment": "BLI, biotinylated HA on streptavidin probe, antibody in solution"}, "[2]": {"molecular_target": "A/Shanghai/2/2013 H7N9 HA extracellular domain 11-505 (H3 numbering) with C-terminal T4 trimerisatio (Influenza A virus A/Shanghai/2/2013 H7N9)", "experiment": "BLI, biotinylated HA on streptavidin probe, antibody in solution"}}}
{"binder": "B1", "values": [{"measurement": "Kd", "setting": "[1]", "value": 10.5, "unit": "nM"}, {"measurement": "Kd", "setting": "[2]", "value": 157, "unit": "nM"}]}
